Measured values from publication PMC2901514 (The Febs Journal, 2010).

Molecular target: the molecule itself
Test: SEC

B1: CMP-Neu5Ac synthetase (CNS) from Neisseria meningitidis, K142A mutant (enzyme)
chain: MEKQNIAVILARQNSKGLPLKNLRKMNGISLLGHTINAAISSKCFDRIIVSTDGGLIAEEAKNFGVEVVLRPAELASDTASSISGVIHALETIGSNSGTVTLLQPTSPLRTGAHIREAFSLFDEKIKGSVVSACPMEHHPLATLLQINNGEYAPMRHLSDLEQPRQQLPQAFRPNGAIYINDTASLIANNCFFIAPTKLYIMSHQDSIDIDTELDLQQAENILNHKES
**Q.** Which “stoichiometry N” value does the source give for B1 here?
**A.** 2
